For orientation: EC50 means the concentration at which the effect is half-maximal. A low value points to an effect from little substance.

In the assay the target is T1, N46 (HIV-1).
T1 construct: Synthetic peptide from the gp41 N-terminal heptad repeat; Used at 8 uM in CD and 0.5 uM in the ELISA; also called NHR-peptide N46
Kind of assay: competition ELISA: inhibition of six-helix bundle formation between N46 and C34-biotin (competitor), detected with mAb NC-1.

Take WQEWEQKITALLEQAQIQQEKNEYELQKLDKWASLWEWF (39-mer hybrid polypeptide) [T-1249]: the EC50 was 800 nM.
